Experimental data published in doi:10.1101/2022.06.04.494830, “The oncogenic fusion protein EWS-FLI1 promotes premature ageing of biomolecular condensates by catalyzing fibril formation” (bioRxiv, 2022).

Biological target: PU.1 DNA-binding domain (PU.1^DBD, PU.1 168-270) (human, UniProt P17947 168-270)
Assay: NMR titration; 1H,15N-HSQC of 50 uM 15N PU.1 168-270 in 50 mM sodium phosphate pH 6.5, 25 C, titrated with unlabeled EWS^LCD (2 mM stock in 20 mM CAPS pH 11) to 12.5, 25, 50, 100 and 150 uM (~3:1)
Settings: both partners purified

B1: EWS low-complexity domain (EWS^LCD, EWS 1-264) (domain or fragment)
chain: MASTDYSTYSQAAAQQGYSAYTAQPTQGYAQTTQAYGQQSYGTYGQPTDVSYTQAQTTATYGQTAYATSYGQPPTGYTTPTAPQAYSQPVQGYGTGAYDTTTATVTTTQASYAAQSAYGTQPAYPAYGQQPAATAPTRPQDGNKPTETSQPQSSTGGYNQPSLGYGQSNYSYPQVPGSYPMQPVTAPPSYPPTSYSSTQPTSYDQSSYSQQNTYGQPSSYGQQSSYGQQSSYGQQPPTSYPPQTGSYSQAPSQYSQQSSSYGQQ
notes: In the fluorescence microscopy 1% of the EWS^LCD carried DyLight 650 or 488, attached through a dye-labelled KLPETGG peptide with sortase; also called EWS^LCD,650; EWS^LCD,488; source: E. coli BL21 Star (DE3) or BL21 (DE3) pLysS, purified (IMAC or cation exchange, TEV cleavage, SEC; 20 mM CAPS pH 11); not shown: His tag (6 or 8 x), N-terminal, cleaved
binding result: binds
